According to article PMC3961674, “Novel Ubiquitin-derived High Affinity Binding Proteins with Tumor Targeting Properties*” (The Journal of Biological Chemistry, 2014):

Target: 77405-MSA (77405 fused to mouse serum albumin) (human | mouse, UniProt P0CG48 1-76; P0CG48 1-76, Gln-2 to Arg | Phe-4 to Trp | Lys-6 to His | Gln-62 to Asn | Lys-63 to Pro | …)
Assay: ELISA; 67B89 target or 6789 off-target coated on Medisorp 96-well plates; variant in serial dilutions, 1 h; detection with anti-Ubi-Fab-POD; apparent KD by hyperbolic fit
Conditions: both partners purified

Kd: 0.58 nM
B1: 67B89 (ED-B domain of fibronectin flanked by its N-terminal domains 6 and 7 and C-terminal domains 8 and 9) (domain or fragment)
chain: not shown
notes: fibronectin, UniProt P02751 isoform 7, residues 1080-1541 (domains 6, 7, ED-B, 8, 9); numbers count on: isoform 7; tag-free, from pET28a; gene synthesis; also called 67B89 target; ED-B target; source: E. coli HMS174 (DE3), purified (Q-Sepharose FF, ammonium sulfate precipitation, Phenyl HP, Q Sepharose HP)
